{
  "source": "patent US20250340623A1",
  "binders": {"B1": {"name": "ACI-7067-1101C8-Ab2 (antibody, V domains shown)", "VH": "EVQLVESGGGLVQPKGSLKLSCAASGFSFNIYAMNWVRQAPGKGLEWVARIRSKSNNYATYYADSVKDRFTISRADSESMLYLQMNNLKTEDTAMYYCVRVGLRFYAMDYWGQGTSVTVSS", "VL": "DVLMTQTPLSLPVSLGDQASISCRSSQSIVHSNGNTYLEWYLQKPGQSPKLLIYKVSNRFSGVPDRFSGSGSGTDFTLKISRVEAEDLGVYYCFQGSQGPLTFGAGTKLELK"}, "B2": {"name": "ACI-7079-2603F3-Ab1 (antibody, V domains shown)", "VH": "EVQLVESGGGLVQPKGSLKLSCAASGFTFNTYAMHWVRQAPGKGLEWVARIRSKGSNYATYYADSVKDRFTISRDDSQSMLYLQMNNLKTEDTAMYYCVRGGGDSWFAYWGQGTLVTVSA", "VL": "QIVLTQSPAIMSASPGERVTMTCTASSSVSYMHWYQQKSGTSPKRWIYDTSKLASGVPARFSGSGSGASYTLTISSMEAEDAATYYCQQWNSNPPTFGGGTQLAIK"}, "B3": {"name": "ACI-7088-4317A4-Ab1 (antibody, V domains shown)", "VH": "EVQLQQSGAELVRPGASVKLSCTASGFNIKDDYMHWVKQRPEQGLEWIGWIDPENGDTEYASKFQGKATMTADTSSNTAYLQLSSLTSEDTAVYYCKTWGTTQALFPYWGQGTLVTVSA", "VL": "DIVMTQSQKFMYTSVGDRVSITCKASQNVGNAVGWYQQKAGQSPKLLIHSASNRYTGVPDRFTGTGSGTDFTLTINNMQSEDLADYFCQQYRSYPLTFGAGTKLELK"}},
  "details_in_all_cases": "remark: other sources report otherwise",
  "key": {"[1]": {"target": "alpha-synuclein fibrils, P37840", "test": "SPR, captured mAb"}, "[2]": {"target": "monomeric alpha-synuclein, P37840", "test": "SPR, captured mAb; steady-state model"}, "[3]": {"target": "monomeric alpha-synuclein, P37840", "test": "SPR, captured mAb; heterogeneous ligand model"}, "[4]": {"target": "alpha-synuclein fibrils, P37840", "test": "SPR single-cycle kinetics, antibody captured on anti-mouse chip, alpha-synuclein fibrils injected"}, "[5]": {"target": "monomeric alpha-synuclein, P37840", "test": "SPR single-cycle kinetics, antibody captured on anti-mouse chip, monomeric alpha-synuclein injected"}, "[6]": {"target": "monomeric alpha-synuclein, P37840", "test": "SPR, captured mAb"}, "[7]": {"target": "alpha-synuclein fibrils, P37840", "test": "SPR, captured mAb; alpha-synuclein fibrils"}, "[8]": {"target": "monomeric alpha-synuclein, P37840", "test": "SPR, captured mAb; alpha-synuclein monomers"}},
  "data": [
    {"binder": "B1", "values": [
      {"measurement": "Kd", "setting": "[1]", "result": 2.9, "unit": "nM"},
      {"measurement": "koff", "setting": "[1]", "result": 0.000283, "unit": "s⁻¹"},
      {"measurement": "kon", "setting": "[1]", "result": 176000, "unit": "M⁻¹ s⁻¹"},
      {"measurement": "Kd", "setting": "[2]", "result": 43.7, "unit": "nM"},
      {"measurement": "koff", "setting": "[3]", "result": 0.0265, "unit": "s⁻¹"},
      {"measurement": "kon", "setting": "[3]", "result": 55500, "unit": "M⁻¹ s⁻¹"},
      {"measurement": "Kd", "setting": "[4]", "result": 1.6, "unit": "nM"},
      {"measurement": "koff", "setting": "[4]", "result": 0.00024, "unit": "s⁻¹"},
      {"measurement": "Kd", "setting": "[5]", "result": 38.8, "unit": "nM"},
      {"measurement": "koff", "setting": "[5]", "result": 0.019, "unit": "s⁻¹"}
    ]},
    {"binder": "B2", "values": [
      {"measurement": "koff", "setting": "[1]", "result": "1.6e-08", "unit": "s⁻¹"},
      {"measurement": "kon", "setting": "[1]", "result": 7310, "unit": "M⁻¹ s⁻¹"},
      {"measurement": "koff", "setting": "[6]", "result": 0.0149, "unit": "s⁻¹"},
      {"measurement": "kon", "setting": "[6]", "result": 50800, "unit": "M⁻¹ s⁻¹"},
      {"measurement": "Kd", "setting": "[7]", "result": 0.002, "unit": "nM"},
      {"measurement": "Kd", "setting": "[8]", "result": 293, "unit": "nM"}
    ]},
    {"binder": "B3", "values": [
      {"measurement": "koff", "setting": "[1]", "result": 0.000998, "unit": "s⁻¹"},
      {"measurement": "kon", "setting": "[1]", "result": 337000, "unit": "M⁻¹ s⁻¹"},
      {"measurement": "koff", "setting": "[6]", "result": 0.012, "unit": "s⁻¹"},
      {"measurement": "kon", "setting": "[6]", "result": 3280, "unit": "M⁻¹ s⁻¹"},
      {"measurement": "Kd", "setting": "[7]", "result": 3, "unit": "nM"},
      {"measurement": "Kd", "setting": "[8]", "result": 3660, "unit": "nM"}
    ]}
  ]
}
